Experimental data taken from patent EP4644419A1 (Hangzhou Zhongmeihuadong Pharmaceutical Co., Ltd., dated 2025).
Changes are numbered by the printed parent chain.

T1: monkey antigen protein (monkey CD112R, Uniprot ID: A0A2K5WVV8) (monkey, UniProt A0A2K5WVV8 41-171)
T1 sequence: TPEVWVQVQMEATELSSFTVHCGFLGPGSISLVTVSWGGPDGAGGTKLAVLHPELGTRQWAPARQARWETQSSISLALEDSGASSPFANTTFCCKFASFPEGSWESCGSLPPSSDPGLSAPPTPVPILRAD

T2: human CD112R antigen protein huCD112R-His (Acro Biosysterm, PVG-H52H4) (human, UniProt Q6DKI7 41-171)
T2 construct: purchased; also called human antigen protein; not shown: His tag
T2 sequence (looked up): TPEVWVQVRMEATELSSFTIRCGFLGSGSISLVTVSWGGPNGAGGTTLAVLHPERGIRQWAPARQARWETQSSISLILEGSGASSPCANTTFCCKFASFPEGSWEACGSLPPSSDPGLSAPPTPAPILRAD

B1: C120 (antibody, human IgG1, kappa, V domains shown)
VH: EVQLQQSGPEVVKPGASVKISCKASGNTLTDYFINWVKQSHGKNLEWIGDINPDNGAGNYNQKFKGKATLTVDKSSGTAFMGLRSLTSEDSAVYYCATLYFDYWGQGTTLTVSS
VL: DIVMTQSPSSLSVSTGEKVTMSCRSSQSLLNSGNQKNYLAWYQQKPGQPPKLLIYGASTRESGVPDRFTGSGSGTDFTLTISSVQAEDLAIYYCQNAHTSPYTFGGGTRLEIKR
B2: C145 (antibody, human IgG1, kappa, V domains shown)
VH: EVQLQQSGPEVVKPGASVRISCKASGNTFTDFFINWVKQSHGKSLEWIGDVNPDSNGANYNQKFKGKATLTVDKSSGTAFMGLRSLTSEDSAVYYCATLFFDNWGQGTTLTVSS
VL: B1 VL with S12N, T15A, R24K, T78I, I91L, T99S, R109K
B3: C56-2 (antibody, human IgG1, kappa, V domains shown)
VH: EVQLVESGGGLVKPGGSLKLSCAASGFTFSDYALSWVRQTPEKRLEWVATIRDGGSYTYYSDNEKGRFTISRDNAKNNLYLQMSHLRSEDTAMYYCTRDQVNRGWFTYWGQGTLVTVSA
VL: QVILTQSPAIMSASLGERVTMTCSASSSVSSSYFHWFQQKPGSSPKLWIYSTSNLASGVPPRFSGSGSGTSYSLTISSMEAEDAATYYCHQHHRSPLTFGAGTKLELKR
B4: C59 (antibody, human IgG1, kappa, V domains shown)
VH: B3 VH with D31G, R87K
VL: B3 VL
B5: C36 (antibody, human IgG1, kappa, V domains shown)
VH: QIQLVQSGPELKKPGETVKISCKASGYTFTTYGMSWVKQAPGKGLKWMGWINTYSGVPTYADDFKGRFAFSLETSASNAYLQINNLKNEDTATYFCARELPFTTIIGTKDYWGQGTTLTVSS
VL: DIVLIQSPATLSVTPGDSVSLSCRASQFISNNLHWYQQKSHESPRLLIKYASQSISGIPSRFSGGGSGTDFTLTVNSVETEDFGMYFCQQSNSWPHTFGGGTKLEIKR
B6: C114 (antibody, human IgG1, kappa, V domains shown)
VH: QVQLQQSGAELVRPGTSVKMSCKAAGYTFTNSWINWVKQRPGHGLEWIGDIYPGNTFPNYNEKFKGKATLTADTSSSTAYMQLSSLTSEDSAVYYCTGGYFDVWGTGTTVTVSS
VL: DIVMTQSPSSLSVSAGEKVTMSCKSSQSLLNSGNQKNFLAWYQQKPGQPPKLLIFGASTRQSGVPDRFTGSGSGTDFTLTISSVQAEDLAVYYCQNDHSYPYTFGGGTKLEMKR
B7: C115 (antibody, human IgG1, kappa, V domains shown)
VH: EVQLQQSGAELVKPGASVKLSCTASGFNIEDTYIHWVKRRPEQGLEWIGGIDPAIGNTLYASKFQDMATITADTSSSTAYMQLSSLTSGDTAVYYCARERVYSNTLYYAMDYWGQGTSVTVSS
VL: DIVLTQSPASLVVSLGQRATISCRASKSVSISGYSYMHWYQQKPGQPPKLLIYLASNLESGVPARFSGSGSGTDFTLNIHPVEAEDAATYYCQHSRELPPTFGGGTNLEIKR
B8: C21 (antibody, human IgG1, kappa, V domains shown)
VH: EVQLQQSGAELVKPGASVKLSCTASGFNIKDIYMHWLKQRPEQGLEWIGRVDPTNGNSEYDPRFQGKATLTADTSSNIAYLQLSSLTSEDTAVYYCARFGIYPYFDYWGQGTTLTVSS
VL: SIVMTQTPKFLLVSAGDRVTITCKASQSVNKAVVWYQQKPGQSPKLLINYASNRYTGVPDRFTGSGYGTDFTFSISTVQAEDLAVYFCQQDYSSPWTFGGGTKLEIKR
B9: C39 (antibody, human IgG1, kappa, V domains shown)
VH: QAYLQQSGAELVRPGASVKMSCKASGYTFTSYNIHWVKQTPRQGLEWIGAIYPGNADISYNQKFRDKATLTVDKSSSTAYMQLSSLTSEDSAVYFCAKPLRIYAMDCWGQGTSVTVSS
VL: DIVMTQSQKFMSTSVGDRVSVTCKASQNVGTNVAWYQQKPGQSPKALIYSASYRYSGVPDRFTGSGSGTDFTLTISNVQSEDLADYFCQQYNSRPLTFGGGTKLEIKR
B10: C101 (antibody, human IgG1, kappa, V domains shown)
VH: EVQLQQSGPELVKPGSSVKISCEASGFTFADYNVDWVKQSHGKSLEWIGAINPNDGGTSYNQKFEGKATLTVDKSSTTAYMELRSLTSEDSAVYYCARWVNNDWYFDVWGTGTTVTVSS
VL: DIVMTQSQKFMSTSVGDRVSITCKASQNVRSAVDWYQQKPGQSPKTLIHSASNRHTGVPDRFTGSGSGTDFTLTISNIQSEDLADYFCLQHWNYPYTFGGGTKLEVKR
B11: C113 (antibody, human IgG1, kappa, V domains shown)
VH: EVQLQQSGPELVKPGSSVKISCKASGYTFTDYNLDWMKQSHGSSLEWIGAMSPNNGATSYNQKFKGKATLTVDKSSSTAYMELRSLTSEDSAVYYCARWDSNSWYFDVWGTGTTVTVSS
VL: B10 VL with N28I, S31T, P40S, T46A, H49Y, N53T, S76D, I78V, D85E, V106I
B12: C111 (antibody, human IgG1, kappa, V domains shown)
VH: QVQLQQSGPELARPGASVKLSCKASGYTLTSHGISWVKQRTGQGLEWIGEIYPGSESPYYSEKFKGKATLTADKSSNIAYMQLSSLTSEDSAVYFCARSDYSDYWAMDYWGQGTSVTVSS
VL: B10 VL with F10C, D34A, H49Y, S50L, S76T, I78V, Y96W, K103E, V106I
B13: C105 (antibody, human IgG1, kappa, V domains shown)
VH: EVQLQQSGPELVKPGSSMKISCKASGYTFTDYSMDWVKQSHGKSLEWIGAINPNNGGTSYNQKFKDKATLTVDRSSSTAYMELRSLTSEDSAVYYCARWDSDYWYFDVWATGTTVTVSS
VL: B10 VL with S31T, T46A, H49Y, I78V, V106I
B14: C146 (antibody, human IgG1, kappa, V domains shown)
VH: B10 VH with F27Y, A79V
VL: B10 VL with N53S
B15: C125 (antibody, human IgG1, kappa, V domains shown)
VH: EVKLVESGGGLVQPGGSLKLSCAASGFTFSSYTMSWVRQTPEKRLELVAELSNSGGSFHYPDNVKGRFTISRDNAKNTLYLQMSSLKSEDTAMYYCARHNWDVYAMDYWGQGTSVTVSS
VL: DIQMSQSPASLSASVGETVTITCRASENVNSYLAWYQQKQGRSPQFLVYNAQTLAEGVPSRFSGGGSGTQFSLKINSLQPEDFGSYYCQHHYGNPTFGGGTKLEIKR
B16: C22 (antibody, human IgG1, kappa, V domains shown)
VH: EVQLQQSGPEPVKPGASVKISCKASGYTFTDYNIHWVRQSHGKSLEWIGYIYPYNGGAGYNQKFKSKATLTVDSSSSTAYMELRSLTSEDSAVYYCAREELRRDYGMDYWGQGTSVTVSS
VL: DIQMTQSPASLSASVGETVTITCRASENIYSYLAWYQQKQGKSPQLLVYNAKTLAEGVPSRFSGSGSGTQFSLKINSLQPEDFGSYYCQHHYGTPYTFGGGTKLETKR
B17: C23 (antibody, human IgG1, kappa, V domains shown)
VH: QVQLQQSGPELVKPGTSVKISCKASGYTFTDYYINWVKQRPGQGLEWIGWIFPGSGNTYYNEKFKGRATLTVDKSSSTAYMLLSSLTSEDSAVYFCARDGGLRGPFDYWGQGTTLTVSS
VL: DIQMTQSPSSLSASLGGKVTITCKASQDINKYIAWFQHKPGKGPRLLIHFTSTLQSGIPSRFSGSGSGGDYSFSISNLEPEDIATYYCLQYDYLYTFGGGTTLEIKR
B18: C136 (antibody, human IgG1, kappa, V domains shown)
VH: DVQLVESGGGLVKPGGSLKLSCAASGFSFSENYMYWVRQTPEKRLEWVATISDGASYTYYPDNVKGRFTISRDTAKNNLYLQMSHLKSEDTAMYYCTRDELIAPFAYWGQGTLVTVSA
VL: DIVMTQSHKFMSTSVGDRVSITCKASQDVGTAVAWFQQKPGQSPKLLIYWASTRHTGVPDRFTGSGSGTDFTLTISNVQSEDLADYFCQQYNSYPWTFGGGTKLEIKR
B19: C28 (antibody, human IgG1, kappa, V domains shown)
VH: QIQLQQSGPELVKPGPSVKISCKASGYTFTDYYINWVKQRPGQGLEWIGWIYPGSGYTKYNEKLKGRATLTVDTSSSTAYMQLSSLTSEDSAVYFCARDSFYAMDYWGQGTSVTVSS
VL: DIVMTQSQKFMSTTVGDRVSITCKASQNVGTAVAWYQQKPGQSPKLLIYSASNRYTGVPDRFTGSGSGTDFTLTITNMQSEDLADYFCLQYSSYLTFGAGTKLELKR
B20: C31 (antibody, human IgG1, kappa, V domains shown)
VH: B19 VH with P16A, N35A, P53L, Y57H, K59M, K63N, L64F, R67K
VL: B19 VL with T76S, L89Q, S93T

target: T1, monkey antigen protein (monkey CD112R, …); test: ELISA, monkey antigen protein (as Example 6.1)

EC50 [nM]	Binder
0.062	B1
0.042	B2
0.044	B3
0.049	B4
0.101	B5
0.077	B6
0.034	B7
0.068	B8
0.141	B9
0.085	B10
0.104	B11
0.074	B12
0.065	B13
0.074	B14
0.079	B15
0.125	B16
0.125	B17
0.06	B18
0.054	B19
0.12	B20

target: T2, human CD112R antigen protein …; test: SPR (Biacore X100), antibody captured on Protein A chip, huCD112R-His as analyte, 1:1 Langmuir

Kd [nM]	Binder
0.0769	B1
0.0356	B6
0.222	B7
0.0392	B10
0.716	B13

target: T2, human CD112R antigen protein …; test: ELISA, huCD112R-His coated on plate

EC50 [nM]	Binder
0.035	B1
0.038	B2
0.032	B3
0.044	B4
0.219	B5
0.042	B6
0.029	B7
0.066	B8
0.691	B9
0.043	B10
0.038	B11
0.036	B12
0.021	B13
0.036	B14
0.049	B15
0.029	B16
0.06	B17
0.039	B18
0.049	B19
0.038	B20
